{"source": "paper doi:10.1101/2021.03.15.435484", "about": "“Functional development of a V3-specific broadly neutralizing antibody isolated from a case of HIV superinfection” (bioRxiv, 2021)", "binders": {"B1": {"name": "QA013.2 CDRH3 point mutant antibody D106V (mature VH D106V paired with the mature light chain) (antibody, V domains shown)", "VH": "DIRIAESGGGLVQPGESLRLACEIIELGFRRAWTTWVRQAPGKGLEWVADINEDGSEKKYGPSVTGRFTISRDNGKNLVFLQMNSLRVEDTATYYCAREAYHLVYVDRIPRGNWFDPWGPGTLVTVSS", "VL": "QSVLTQPPSVSGAPGQRVVISCTGSRSNIGAGYDVHWYQQSPGKVPRIIIYGSNSRSSGVPARFSGSKSGTSASLAITGLQAEDEADYYCQSYDTTLTASVFGGGTKVTVL"}}, "target": "BG505.SOSIP.664 Env trimer (heterologous clade A native-like trimer containing the N332 glycan) (HIV-1 clade A, isolate BG505 …, stabilised)", "test": "cell-based or functional assay"}
{"binder": "B1", "values": [{"measurement": "average fold increase in neutralisation IC50 across all tested pseudoviruses relative to the mature bnAb (TZM-bl assay)", "value": 40, "unit": "fold"}]}
